Biological target: the molecule itself
Test: cryo-EM structure

B1: large glutamate dehydrogenase of 180 kDa subunits from Mycobacterium smegmatis (mL-GDH180) (enzyme)
chain: MIRRLSVAFLSTYRGPQADAPGVTSTGPLAVAAHDDLVSDDLVAAHYRLASMRAPGETKAAVYPGDAGSGAALQIVTDQAPMLVDSVTVLLHRHGIAYTAIMNPVFRVRRGLDGELLDVRPAAEAAPGDGADECWILVPITAAADGEALTEATRLVPGILAEARQIGLDSGAMIAALHGLANDLATDLEGHFPNAERKEVAALLRWLADGHFVLLGYQQCVVGDGNAEVDPASRLGVLRLRNDVLPPLTDSDDLLVLAQATMPSYLRYGAYPYIVVVRESPGASRVIEHRFVGLFTVAAMNANALEIPLISRRVEEALAMAHRDPSHPGQLLRDIIQTIPRPELFALSSKQLLEMALAVVDLGSRRRTLLFLRADHLAHFVSCLVYLPRDRYTTAVRLEMQDILVRELGGAGIDYSARVSESPWAVVHFTVRLPEGTAADSVDTSLENESRIQDLLTEATRNWGDRMISAAAAASISPAALEHYAHAFPEDYKQAFAPQDAIADISLIEALQDDSVKLVLADTAEDRVWKLTWYLGGHSASLSELLPMLQSMGVVVLEERPFTLRRTDGLPVWIYQFKISPHPSIPHAPDAEAQRDTAQRFADAVTAIWHGRVEIDRFNELVMRAGLTWQQVVVLRAYAKYLRQAGFPYSQSHIESVLNENPHTTRSLIDLFEALFDPSQETDGRRDAQGAAAAVAADIDALVSLDTDRVLRAFANLIEATLRTNYFVARPDSARARNVLAFKLNPLVIKELPLPRPKFEIFVYSPRVEGVHLRFGFVARGGLRWSDRREDFRTEILGLVKAQAVKNAVIVPVGAKGGFVVKRPPTLTGDAAADREATRAEGVECYRLFISGLLDVTDNVDKATGAVVTPPEVVRRDGEDAYLVVAADKGTATFSDIANEVAKSYGFWLGDAFASGGSIGYDHKAMGITAKGAWESVKRHFREMGVDTQTQDFTVVGIGDMSGDVFGNGMLLSKHIRLVAAFDHRDIFLDPNPDAGRSWDERKRLFDLPRSSWADYDKSLISEGGGVYSRQQKSIPISPQVRTALGLDADVEELTPPALIKAILKAPVDLLWNGGIGTYIKAETEADADVGDRANDQIRVCGNQVRAKVIGEGGNLGVTALGRIEFDLAGGRINTDALDNSAGVDCSDHEVNIKILIDSAVTAGKVTPEERTELLLSMTDEVGELVLADNRDQNDLMGTSRANAASLLSVHARMIKDLVDNRGLNRELEALPSEKEIRRRADAGIGLTSPELATLMAHVKLALKDDVLASDLPDQEVFASRLPYYFPTRLREELHGEIRSHQLRREIITTMLVNDLVDTAGISYAYRITEDVGVGPVDAVRSYVAINAIFGIGDVWRRIRAAGDAGVPTSVTDRMTLDLRRLVDRAGRWLLNYRPQPLAVGAEINRFGAKVAALTPRMSEWLRGDDKAIVSKEAGDFASHGVPEDLAYHIATGLYQYSLLDVIDIADIVDREPDEVADTYFALMDHLGADALLTAVSRLSRDDRWHSLARLAIRDDIYGSLRALCFDVLAVGEPDENGEEKIAEWETTNSSRVTRARRTLTEIYKDGEQDLATLSVAARQIRSMTRTSGTGTTG
  stoichiometry N: 4
